In publication PMC6642083, “Structural basis of tubulin detyrosination by VASH2/SVBP heterodimer” (Nature Communications, 2019):

Molecular target: T1, VASH2_(1–355)(C158A)/SVBP_(1–66) (Mus musculus, UniProt Q8C5G2 1-355; Q99LQ4 1-66, C158A)
T1 construct: SVBP, Mus musculus, residues 1-66; also called VASH2(C158A)/SVBP; source: Sf9, co-expressed (baculovirus), purified (Ni-NTA, heparin, SEC); not shown: His-tag, N-terminal, cleaved
Experiment: crystal structure; tail peptide (1 mM) co-crystallized with VASH2 1–355(C158A)/SVBP 1–66 (5 mg/ml), 2.5 Å; 0.1 M HEPES pH 7.0, 1 M (NH4)2SO4, 1.105 M KCl, 18 °C
Conditions: both partners purified

T1 sequence (Q8C5G2 whole entry C158A, chain 1 of 2, the tested form may be a part): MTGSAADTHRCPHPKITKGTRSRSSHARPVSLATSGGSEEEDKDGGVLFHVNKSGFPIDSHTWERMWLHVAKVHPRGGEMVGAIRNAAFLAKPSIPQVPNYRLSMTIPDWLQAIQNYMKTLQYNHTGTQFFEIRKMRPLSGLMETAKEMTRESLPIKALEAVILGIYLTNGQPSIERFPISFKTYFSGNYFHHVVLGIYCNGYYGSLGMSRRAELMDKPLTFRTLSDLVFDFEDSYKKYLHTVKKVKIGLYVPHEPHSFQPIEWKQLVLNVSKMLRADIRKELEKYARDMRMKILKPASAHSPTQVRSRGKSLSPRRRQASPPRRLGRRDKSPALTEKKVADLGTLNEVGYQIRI
T1 sequence (Q99LQ4 whole entry, chain 2 of 2, the tested form may be a part): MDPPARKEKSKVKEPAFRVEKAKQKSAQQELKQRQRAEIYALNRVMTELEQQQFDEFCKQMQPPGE

- binding result: binds
B1: α-tubulin C-terminal tail peptide (VDSVEGEGEEEGEEY) (peptide)
peptide: VDSVEGEGEEEGEEY
notes: C-terminal tail of α-tubulin; Only the last five residues (EGEEY) were built in the crystal structure; also called tubulin tail; full-length tail; source: synthetic peptide (Biosynthesis)
